{"source": "paper PMC3082181", "about": "(The Journal of Cell Biology, 2011)", "assay_in_all_cases": "co-IP", "key": {"Flag-Munc18c-Y219F": {"biological_target": "T1, Flag-Munc18c-Y219F (mouse, UniProt Q60770 1-592, Y219F)", "T1 sequence": "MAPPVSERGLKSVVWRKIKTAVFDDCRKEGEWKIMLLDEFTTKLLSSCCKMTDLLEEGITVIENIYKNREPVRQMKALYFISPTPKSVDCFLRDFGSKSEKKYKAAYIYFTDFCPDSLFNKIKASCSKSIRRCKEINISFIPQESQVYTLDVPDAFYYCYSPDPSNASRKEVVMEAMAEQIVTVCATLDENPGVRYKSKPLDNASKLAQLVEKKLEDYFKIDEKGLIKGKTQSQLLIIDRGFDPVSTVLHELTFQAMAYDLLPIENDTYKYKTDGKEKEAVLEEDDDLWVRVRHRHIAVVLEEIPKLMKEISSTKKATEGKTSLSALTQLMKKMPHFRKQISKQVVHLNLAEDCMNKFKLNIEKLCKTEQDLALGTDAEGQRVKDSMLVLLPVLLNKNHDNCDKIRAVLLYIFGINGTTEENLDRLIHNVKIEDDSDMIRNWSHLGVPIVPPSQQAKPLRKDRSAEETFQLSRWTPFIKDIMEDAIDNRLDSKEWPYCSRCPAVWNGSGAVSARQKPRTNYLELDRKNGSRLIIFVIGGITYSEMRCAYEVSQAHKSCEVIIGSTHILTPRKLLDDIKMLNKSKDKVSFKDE"}, "Flag-Munc18c-Y521F": {"biological_target": "T2, Flag-Munc18c-Y521F (mouse, UniProt Q60770 1-592, Y521F)", "T2 sequence": "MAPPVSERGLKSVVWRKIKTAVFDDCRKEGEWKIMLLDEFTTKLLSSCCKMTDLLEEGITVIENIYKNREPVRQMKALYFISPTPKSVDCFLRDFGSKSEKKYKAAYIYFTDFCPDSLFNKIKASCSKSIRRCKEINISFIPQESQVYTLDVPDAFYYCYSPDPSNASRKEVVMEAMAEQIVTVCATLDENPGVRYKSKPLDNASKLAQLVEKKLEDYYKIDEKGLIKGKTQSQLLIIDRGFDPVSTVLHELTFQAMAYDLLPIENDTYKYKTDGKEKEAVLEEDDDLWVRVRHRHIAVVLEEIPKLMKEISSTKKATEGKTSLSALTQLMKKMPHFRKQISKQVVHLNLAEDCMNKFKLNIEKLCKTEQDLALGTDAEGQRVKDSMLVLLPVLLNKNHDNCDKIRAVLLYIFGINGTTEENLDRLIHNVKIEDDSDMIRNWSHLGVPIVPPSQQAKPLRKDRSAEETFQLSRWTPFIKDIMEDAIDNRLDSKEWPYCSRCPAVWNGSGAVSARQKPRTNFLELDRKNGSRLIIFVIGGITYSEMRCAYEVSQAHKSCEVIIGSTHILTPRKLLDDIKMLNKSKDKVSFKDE"}, "Munc18c": {"biological_target": "T3, Munc18c (mouse (endogenous in 3T3-L1 adipocytes …, UniProt Q60770 1-592))", "T3 sequence": "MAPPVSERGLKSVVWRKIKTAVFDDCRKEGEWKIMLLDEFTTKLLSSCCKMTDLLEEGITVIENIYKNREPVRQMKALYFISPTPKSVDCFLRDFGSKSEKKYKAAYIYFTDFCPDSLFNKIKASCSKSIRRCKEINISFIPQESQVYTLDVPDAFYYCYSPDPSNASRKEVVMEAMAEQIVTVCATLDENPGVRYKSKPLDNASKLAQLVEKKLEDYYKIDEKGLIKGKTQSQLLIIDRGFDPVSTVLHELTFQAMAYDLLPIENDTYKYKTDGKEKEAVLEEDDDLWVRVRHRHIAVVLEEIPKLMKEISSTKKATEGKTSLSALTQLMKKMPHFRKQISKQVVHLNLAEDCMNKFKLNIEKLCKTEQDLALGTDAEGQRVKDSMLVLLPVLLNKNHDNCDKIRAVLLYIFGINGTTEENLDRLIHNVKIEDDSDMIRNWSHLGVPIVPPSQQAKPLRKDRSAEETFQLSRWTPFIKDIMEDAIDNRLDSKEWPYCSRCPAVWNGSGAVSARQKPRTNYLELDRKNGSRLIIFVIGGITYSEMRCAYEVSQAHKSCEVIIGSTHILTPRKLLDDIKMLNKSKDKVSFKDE"}}}
{"binder": "full-length syntaxin 4 (natural protein) MRDRTHELRQGDNISDDEDEVRVALVVHSGAARLSSPDDEFFQKVQTIRQTMAKLESKVRELEKQQVTILATPLPEESMKQGLQNLREEIKQLGREVRAQLKAIEPQKEEADENYNSVNTRMKKTQHGVLSQQFVELINKCNSMQSEYREKNVERIRRQLKITNAGMVSDEELEQMLDSGQSEVFVSNILKDTQVTRQALNEISARHSEIQQLERSIRELHEIFTFLATEVEMQGEMINRIEKNILSSADYVERGQEHVKIALENQKKARKKKVMIAICVSVTVLILAVIIGITITVG", "values": [{"measurement": "ratio syntaxin 4/Flag-Munc18c, insulin-stimulated versus basal = 1", "setting": "Flag-Munc18c-Y219F", "result": 1}, {"measurement": "ratio syntaxin 4/Flag-Munc18c, insulin-stimulated versus basal = 1", "setting": "Flag-Munc18c-Y521F", "result": 1.6}]}
{"binder": "insulin receptor (receptor) chain 1: HLYPGEVCPGMDIRNNLTRLHELENCSVIEGHLQILLMFKTRPEDFRDLSFPKLIMITDYLLLFRVYGLESLKDLFPNLTVIRGSRLFFNYALVIFEMVHLKELGLYNLMNITRGSVRIEKNNELCYLATIDWSRILDSVEDNYIVLNKDDNEECGDVCPGTAKGKTNCPATVINGQFVERCWTHSHCQKVCPTICKSHGCTAEGLCCHKECLGNCSEPDDPTKCVACRNFYLDGQCVETCPPPYYHFQDWRCVNFSFCQDLHFKCRNSRKPGCHQYVIHNNKCIPECPSGYTMNSSNLMCTPCLGPCPKVCQILEGEKTIDSVTSAQELRGCTVINGSLIINIRGGNNLAAELEANLGLIEEISGFLKIRRSYALVSLSFFRKLHLIRGETLEIGNYSFYALDNQNLRQLWDWSKHNLTITQGKLFFHYNPKLCLSEIHKMEEVSGTKGRQERNDIALKTNGDQASCENELLKFSFIRTSFDKILLRWEPYWPPDFRDLLGFMLFYKEAPYQNVTEFDGQDACGSNSWTVVDIDPPQRSNDPKSQTPSHPGWLMRGLKPWTQYAIFVKTLVTFSDERRTYGAKSDIIYVQTDATNPSVPLDPISVSNSSSQIILKWKPPSDPNGNITHYLVYWERQAEDSELFELDYCLKGLKLPSRTWSPPFESDDSQKHNQSEYDDSASECCSCPKTDSQILKELEESSFRKTFEDYLHNVVFVPRPS chain 2: SLEEVGNVTATTLTLPDFPNVSSTIVPTSQEEHRPFEKVVNKESLVISGLRHFTGYRIELQACNQDSPDERCSVAAYVSARTMPEAKADDIVGPVTHEIFENNVVHLMWQEPKEPNGLIVLYEVSYRRYGDEELHLCVSRKHFALERGCRLRGLSPGNYSVRVRATSLAGNGSWTEPTYFYVTDYLDVPSNIAKIIIGPLIFVFLFSVVIGSIYLFLRKRQPDGPMGPLYASSNPEYLSASDVFPSSVYVPDEWEVPREKITLLRELGQGSFGMVYEGNAKDIIKGEAETRVAVKTVNESASLRERIEFLNEASVMKGFTCHHVVRLLGVVSKGQPTLVVMELMAHGDLKSHLRSLRPDAENNPGRPPPTLQEMIQMTAEIADGMAYLNAKKFVHRDLAARNCMVAHDFTVKIGDFGMTRDIYETDYYRKGGKGLLPVRWMSPESLKDGVFTASSDMWSFGVVLWEITSLAEQPYQGLSNEQVLKFVMDGGYLDPPDNCPERLTDLMRMCWQFNPKMRPTFLEIVNLLKDDLHPSFPEVSFFYSEENKAPESEELEMEFEDMENVPLDRSSHCQREEAGGREGGSSLSIKRTYDEHIPYTHMNGGKKNGRVLTLPRSNPS", "values": [{"measurement": "fold change of coprecipitated IR, insulin versus unstimulated", "setting": "Munc18c", "result": "~2", "unit": "fold"}]}
